According to patent US5457182:

Key:
[1] = biological target: bovine brain calcineurin (bovine) (UniProt P48452)
[2] = biological target: N-succinyl-Ala-Leu-Pro-Phe-p-nitroanilide

IC50 for inhibition of CaN phosphatase activity (with FK-506, CaM, Ca2+, Mg2+) [1] [nM]	PPIase activity [2] [fold]	Substance
16	–	FKBP12.6 (bovine, purified from calf brain cytosol)
–	25	cyclophilin (enzyme)
9.9	–	recombinant human FKBP12 (from UniProt P62942)
